The target in data set [1] is Schmallenberg virus (SBV) nucleocapsid (N) protein (Schmallenberg virus). Put plainly: crystal structure.
Data set [2] has the same target. Put plainly: SEC. For orientation: Size exclusion chromatography separates by hydrodynamic size, large species first.
For data set [3] the target is unchanged. Put plainly: negative-stain electron microscopy with single-particle averaging.
Data set [4] addresses Selenomethionine-substituted SBV N protein (Schmallenberg virus). Put plainly: crystal structure.
For data set [5], the target named is BUNV N (nucleocapsid) wild type (Bunyamwera virus, UniProt P16495 1-233). The experiment in a line: fluorescence polarization. On the technique in general: Polarisation of emitted light reports the rotation of a fluorescent probe.
Data set [6] deals with T1, SBV N (nucleocapsid) wild type (Schmallenberg virus isolate BH80/11-1, UniProt H2AM13 1-233).
T1 sequence: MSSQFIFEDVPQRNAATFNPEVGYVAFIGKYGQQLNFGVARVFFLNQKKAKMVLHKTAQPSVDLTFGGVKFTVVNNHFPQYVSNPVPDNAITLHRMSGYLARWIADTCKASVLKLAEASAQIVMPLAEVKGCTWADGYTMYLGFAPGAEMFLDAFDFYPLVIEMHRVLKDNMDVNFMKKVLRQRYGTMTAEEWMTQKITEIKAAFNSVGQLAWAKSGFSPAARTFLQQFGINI
Put plainly: fluorescence polarization.

The data set “SEC” concerns the molecule itself. The experiment in a line: SEC.

In the case of “Schmallenberg virus (SBV) nucleocapsid (N) protein (natural protein)”, the stoichiometry N in data set [1], in data set [2] and in data set [3] was 4 in each case. Consider “Selenomethionine-substituted SBV N protein (natural protein)”, for which the stoichiometry N (commonly a count of units in the complex or per binding partner) in data set [4] came out at 4.

B1: BUNV48AG (ssRNA)
RNA: AGUAGUGUACUCCACACUACAAACUUGCUAUUGUUGAAAAUCGCUGUG
For the molecule B1, the Kd (commonly a measure of binding affinity in units of concentration) in data set [5] was 62.9 ± 5 nM; in data set [6], 21.3 ± 1 nM.

B2: Bunyamwera virus (BUNV) nucleocapsid (N) protein (natural protein)
chain: MIELEFHDVAANTSSTFDPEVAYANFKRVHTTGLSYDHIRIFYIKGREIKTSLAKRSEWEVTLNLGGWKITVYNTNFPGNRNNPVPDDGLTLHRLSGFLARYLLEKMLKVSEPEKLIIKSKIINPLAEKNGITWNDGEEVYLSFFPGSEMFLGTFRFYPLAIGIYKVQRKEMEPKYLEKTMRQRYMGLEAATWTVSKLTEVQSALTVVSSLGWKKTNVSAAARDFLAKFGINM
Consider B2, for which the “stoichiometry N” value in the data set “SEC” is 4.

The values above are taken from paper PMC3675483 (Nucleic Acids Research, 2013).
